Results as given in publication PMC6700787, “Sharpin suppresses β1-integrin activation by complexing with the β1 tail and kindlin-1” (Cell Communication and Signaling : CCS, 2019).

T1: N-terminus of sharpin (SH-N, 1-217 amino acids), his-tagged (UniProt Q9H0F6 1-217)
T1 construct: also called His-SH-N; N-terminal fragment of sharpin; source: E. coli Rosetta DE3, purified (Ni-NTA agarose)
T1 sequence (looked up): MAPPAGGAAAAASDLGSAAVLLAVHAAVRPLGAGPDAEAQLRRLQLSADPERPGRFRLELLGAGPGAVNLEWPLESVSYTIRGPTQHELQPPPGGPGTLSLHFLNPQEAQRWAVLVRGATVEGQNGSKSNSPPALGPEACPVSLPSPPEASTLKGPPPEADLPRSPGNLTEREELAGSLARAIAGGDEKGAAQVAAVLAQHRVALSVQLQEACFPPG

T2: GST-fused integrin β1 cytoplasmic tail (Homo sapiens (Human), UniProt P05556)
T2 chain: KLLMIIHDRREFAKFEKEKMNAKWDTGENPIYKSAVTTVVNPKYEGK

T3: GST-fused kindlin-1 (Homo sapiens (Human), UniProt Q9BQL6)
T3 chain: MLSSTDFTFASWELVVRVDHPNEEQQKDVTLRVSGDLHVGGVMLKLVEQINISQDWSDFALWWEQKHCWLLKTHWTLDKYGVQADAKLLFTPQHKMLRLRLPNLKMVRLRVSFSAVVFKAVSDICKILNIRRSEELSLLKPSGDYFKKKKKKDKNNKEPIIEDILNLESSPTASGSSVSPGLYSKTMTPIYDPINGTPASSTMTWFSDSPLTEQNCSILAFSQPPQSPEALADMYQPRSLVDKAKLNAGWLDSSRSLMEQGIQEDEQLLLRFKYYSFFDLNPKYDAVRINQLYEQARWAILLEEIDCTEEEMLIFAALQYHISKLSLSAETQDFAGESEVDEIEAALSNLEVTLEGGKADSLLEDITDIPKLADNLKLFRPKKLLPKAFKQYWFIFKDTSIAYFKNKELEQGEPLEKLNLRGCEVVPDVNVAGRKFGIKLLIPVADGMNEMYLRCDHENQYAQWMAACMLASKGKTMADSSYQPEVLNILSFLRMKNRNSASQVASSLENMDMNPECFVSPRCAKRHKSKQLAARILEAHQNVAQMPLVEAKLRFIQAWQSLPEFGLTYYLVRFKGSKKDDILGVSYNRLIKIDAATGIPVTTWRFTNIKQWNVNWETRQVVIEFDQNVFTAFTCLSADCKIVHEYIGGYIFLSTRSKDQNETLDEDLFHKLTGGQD

B1: integrin β1 CT protein (NMR and SPR samples) (domain or fragment, UniProt P05556 752-798, looked up)
chain: T2 chain
notes: Integrin β1 cytoplasmic tail (CT); 15N-labelled in the HSQC experiment, unlabelled analyte in SPR; The only vector named for the tails is pGST-1; also called ^15N-labeled β1 CT; the integrin β1 CT protein
B2: his-tagged kindlin-1 (protein)
chain: T3 chain
B3: C-terminus of sharpin (SH-C, 217-387 amino acids), his-tagged (protein)
chain: GPIRLQVTLEDAASAASAASSAHVALQVHPHCTVAALQEQVFSELGFPPAVQRWVIGRCLCVPERSLASYGVRQDGDPAFLYLLSAPREAPATGPSPQHPQKMDGELGRLFPPSLGLPPGPQPAASSLPSPLQPSWSCPSCTFINAPDRPGCEMCSTQRPCTWDPLAAAST

Tests used:
[1] = biological target: T1, N-terminus of sharpin (SH-N, 1-217 …); assay: SPR; Biacore 8K; N-terminal fragment of sharpin coupled to a CM5 chip; integrin β1 CT or β3 CT injected at 2.5, 5, 10, 20 and 40 μM; room temperature, PBS; conditions: both partners purified
[2] = biological target: T2, GST-fused integrin β1 cytoplasmic tail; assay: GST pull-down
GST-fused kindlin-1 = biological target: T3, GST-fused kindlin-1; assay: GST pull-down

Kd [1] | binding result [2] | binding result (GST-fused kindlin-1) | Binder
40 µM | – | – | B1
– | binds | – | B2
– | no binding | binds | B3
